The record followed here is paper PMC8967717 (Nature, 2022).

B1: XGv282 (antibody, V domains shown)
VH: QVQLVQSGAEVKKPGSSVKVSCKASGDTFSSYTFSWVRQAPGQGLEWMGRSIPIVGKAIYAQEFQGRVTISADRSTTTVYMELSSLRSDDTAVYYCARDQSGFDFFYYDHWGQGTLVAVSS
VL: QSVLTQPPSASGTPGQRVTISCSGSGSNIGSNTINWYQQLPGTAPKVLIYRNNERPSGVPDRFSGSKSGTSASLTISGLQSEDEAYYHCAAWDDSLNGPVFGGGTKLTVL
B2: XGv265 (antibody, V domains shown)
VH: QITLKESGPTLVKPTQTLTLTCNFSGFSLNTYGVGVGWIRQPPGKALEWLALIYWDGDERYGPFFKNKVTIAKDTSKNQVVLTMTNMDPVDTATYYCARHLIPTIFDYWGQGTLVTVSS
VL: QSALTQPASVSGSPGQSITISCTGTSSDVGGSNYVSWYQHHPDRAPKLLIYEVTNRPSGVSNRFSGSKSANTASLTISGLQAEDEADYYCSSYTTTSTHILFGGGTKLTV
B3: XGv289 (antibody, V domains shown)
VH: QVQLVQSGAEVKKPGASLKVSCRASGYTFTSHFIHWVRQAPGQGLEWMGIINPSGGASYAQNFRDRVTMTTDPSTSTVYMELGSLRSEDTAVYYCARAEGSSWLGWFDPWGQGTLVTVSS
VL: QSVLTQPPSASGTPGQRVTIPCSGSSSNIGNNYVYWYQQLPGTAPKLLVYGNNQRPSGVPDRFSVSKSGTSASLAISGLRSEDEADYYCAAWDDGLSGSGWVFGGGTKLTVL
B4: XGv347 (antibody, V domains shown)
VH: QMQLVQSGPEVKKPGTSVKVSCKASGFTFTDVSSLQWVRQARGQRLEWIGWTVVGTGNTNYAPRFQERVTITTDKSTSTAYMELSSLRSEDTAVYYCAAPFCSETSCSDGFDLWGQGTKVTVSS
VL: EIVLTQSPGTLSLSPGDRATLSCRASQSVRISYLAWYQQKPGQAPRLLISGSSSRATGIPDRFSASGSGTDFALTISRLEPEDFAVYYCQQYDNSPWTFGQGTKVEVK
B5: XGv338 (antibody, V domains shown)
VH: EVQLVESGGGLVQPGGSLRLSCAASGFPFITYWMSWVRQTPGKGLEWVANIKEDGSEKNYVDSVKGRFTVSRDNAENSLYLRMNSLRIEDTAVYYCAREIRRTIPTSGMDVWGQGTTVTVSS
VL: SYELTQPPSVSVSPGQTARITCTGDALPKQYAYWYQQKPGQAPVLIISKDNERASGIPERISGSRSGTTVTLTISGVQAEDEADYYCQSADSSASYSYVFGTGTKVTVL
B6: XGv387 (antibody, V domains shown)
VH: EVQLVESGGGLIQPGGSLRLSCAASGVIVSSNYMSWVRQAPGKGLEWVSVMYSGGSTFYADSVKGRFTISRDNSKNTLYLQMNRLRAEDTAVYFCARGDGGSYLGGAFDIWGQGTMVTVSS
VL: DIQMTQSPSSLSASVGDRVTLTCRASQSISTYLNWYQQKPGKAPKLLIYAASSLQSGVPSRFSGSGSGTDFTLTINSLQPEDFATYYCQQSYSLPALTFGGGTKVEIK
B7: XGv345 (antibody, V domains shown)
VH: QVQLQESGPGLVKPSQTLSLTCTVSGGSIRSGSYYWSWIRQPAGKGLEWIGRVYTSGSTNYNPSLKTRVTISLETSKNHFSLKLSSVTAADTAVYYCARGEWEEDFALWGRGTLVTVSS
VL: DIQMTQSPSSLSASVGDRVTITCRASQSIASHLNWYQQKPGKAPKLLIYGASTLQSGVPSRFSGSGSGTAFTLTISSVQPEDFATYYCQQSYSAITFGQGTRLEIK
B8: XGv402 (antibody, V domains shown)
VH: QVQLVESGGGVVQPGRSLRLSCAASGFTFNNYAMHWVRQAPGKGLEWVAVISYDGSNEFYLDSVKGRFAISRDNSKNTLYLQTNSLRGEDTAVYYCARESRRGADYWGQGTLVTVSS
VL: DIQMTQSPSSLSASVGDRVTITCRASQIISNYLNWYQQKPGKAPKLLIYAASSLQSGVPSRFSGSGSGTDFTLTISSLQPEDSATYYCQQSFSPLWTFGPGTKVEIK
B9: XGv303 (antibody, V domains shown)
VH: EVQLVESGGGLIRPGGSLRLSCAASGITVSSNYMTWVRQAPGKGLEWVSVIYSGGTTFYADSVKGRFTISRDNSKNTLYLQMNSLRAEDTAVYYCARNLVVYGMDVWGQGTTVTVSS
VL: DIQLTQSPSSLSASVGDRVTITCRASQGISSDLAWYQQKPGKAPKLLIYGASTLQGGVPSRFSGSGSGTDFTLTISRLQPEDCAIYYCQQLNSEFLTFGGGTKVEIK
B10: XGv304 (antibody, V domains shown)
VH: B9 VH with R13Q, A23E, G26E, T35R, V50L, S53A, T56S, A87V, N98D, V100M
VL: B9 VL with D32Y, K45N, G56S, R77S, C83F, I85T, Q90H, E94D, F95P
B11: XGv420 (antibody, V domains shown)
VH: QVQLQESGPGLVKPSGTLSLTCAVSGGSINSNNWWSWVRQPPGKGLEWIGEIYHNGNTNYNPSLKSRVTISVDTSKNQFSLRLSSVTAADTAVYYCARGDSLDWFDPWGQGTLVTVSS
VL: QSALTQPASVSGSPGQSITISCTGTSSDVGSYNYVSWYQQLPGKAPKLMIYDVSNRPSGVSNRFSGSKSGNTASLTISGLQAEDEADYYCSSYTSSSTLVFGTGTKVTVL

Where a chain is given by its changes, count along the chain named.

One test concerns the target T1, SARS-CoV-2 wild-type spike receptor-binding domain (SARS-CoV-2, WT (MN908947), UniProt P0DTC2). Nature of the test: BLI. Conditions: both partners purified.
The molecule B1 displayed a Kd of 0.344 nM.

In turn, B2 returned a Kd of 0.59 nM.

The molecule B3 yielded a dissociation constant (Kd) of 0.515 nM.

B4: binding was characterised by a dissociation constant (Kd) of 0.0814 nM.

The next test has as its target SARS-CoV-2 wild-type spike N-terminal domain (SARS-CoV-2, WT (MN908947), UniProt P0DTC2). Nature of the test: ELISA. Conditions: both partners purified.
As for B1, the binding result is recorded as “no binding”.

On to B3, for which the binding result was “no binding”.

Consider B4, for which the binding result is “no binding”.

For another test, the target named is SARS-CoV-2 wild-type spike (S) protein (SARS-CoV-2, WT (MN908947), UniProt P0DTC2).
Test: not given
Conditions: not given
In the case of B5, the binding result is listed as “binds”.

In the case of B6, the binding result is “binds”.

As for B7, the binding result was “binds”.

Take B8: the binding result is reported as “binds”.

In the case of B9, the binding result is reported as “binds”.

For B10, the binding result is given as “binds”.

Consider B11, for which the binding result is given as “binds”.

For another test, the target named is T1, SARS-CoV-2 wild-type spike ….
Test: not given
Conditions: not given
Regarding B5, the binding result was “binds”.

For the molecule B6, the binding result is “binds”.

As to B7, the binding result is “binds”.

B8: the binding result was “binds”.

For the molecule B9, the binding result is listed as “binds”.

On to B10, for which the binding result was “binds”.

As to B11, the binding result was “binds”.
